Data on 2 molecules can be found in paper PMC10302723, “Differential regulation of Shigella Spa47 ATPase activity by a native C-terminal product of Spa33” (Frontiers in Cellular and Infection Microbiology, 2023).

Data set [1] concerns the molecule itself. As to the kind of experiment: AUC; sedimentation velocity of purified His-tagged Spa33C; a single dominant species of 27 ± 3 kDa; monomer to dimer.
Data set [2] concerns the target T1, oligomeric Spa47 (SEC-isolated homo-oligomer) (Shigella, UniProt P0A1C1 1-430).
T1 construct: Spa47, Shigella T3SS ATPase; Same construct as m5 and m7; also called Spa47 oligomer; homo-oligomeric Spa47; source: E. coli, purified (chitin column with on-column intein cleavage, anion exchange, SEC isolation of the oligomer)
As to the kind of experiment: fluorescence polarisation; EGFP-Spa33C (or EGFP as control) held at 100 nM, Spa47 monomer or oligomer titrated 0-1.5 μM (monomer units); single site saturation binding model; concentration at half-maximum change in polarisation. The following applies: both partners purified. For orientation: Polarisation of emitted light reports the rotation of a fluorescent probe.

Data set [3] concerns the target T2, monomeric Spa47 (SEC-isolated) (Shigella, UniProt P0A1C1 1-430).
T2 construct: Spa47, Shigella T3SS ATPase; Same construct as m5 and m8; also called Spa47 monomer; monomeric Spa47 isolate; source: E. coli, purified (chitin column with on-column intein cleavage, anion exchange, SEC isolation of the monomer)
The description is as above. The settings on record: both partners purified.

B1: Spa33C containing an N-terminal 6 x histidine tag (domain or fragment)
chain: MNDNNEAKINLSESNGESEHTEVSLALFNYDDINVKVDFILLEKNMTINELKMYVENELFKFPDDIVKHVNIKVNGSLVGHGELVSIEDGYGIEISSWMVKE
notes: Spa33, Shigella flexneri 2457T; Homodimer by SV-AUC (27 ± 3 kDa; dimer with His tag = 27.5 kDa); also called recombinant Spa33C; homo-dimeric Spa33C; source: E. coli, purified (IMAC, SEC); not shown: His6, N-terminal, kept
Consider B1, for which the “stoichiometry N” value in data set [1] was 2.

B2: EGFP-Spa33C fluorescent protein chimera with an N-terminal 6 x histidine tag (domain or fragment)
chain: B1 chain
notes: Spa33, Shigella flexneri 2457T; EGFP is the fluorescent probe of the polarisation assay; Oligomer state of the chimera was not measured (Spa33C with His tag is a homodimer); also called fluorescent Spa33C construct; source: E. coli (pET15b), purified (IMAC, SEC); not shown: EGFP, N-terminal, kept
Take B2: the results for the Kd in data set [2] and in data set [3] were 80 ± 10 nM and 50 ± 7 nM, respectively.

The stoichiometry N is the number of molecules, sites or subunits per partner or assembly. By Kd is commonly meant the equilibrium constant for the complex coming apart. A lower Kd goes with a tighter complex.
